Experimental data from patent US20150284450A1, “COMBINATION THERAPIES USING ANTI-PSEUDOMONAS PSL AND PCRV BINDING MOLECULES” (priority 2012, published 2015).

Experiments:
[1] = test system: P. aeruginosa PAO1.lux attachment to A549 cells; assay: Cell attachment assay, PAO1.lux on A549 cells; format: cell-based, Pseudomonas aeruginosa; conditions: MOI 10, FIG. 4
Experimental: Anti-Psl antibodies were added to a confluent monolayer of A549 cells (an adenocarcinoma human alveolar basal epithelial cell line) grown in opaque 96-well plates (Nunc Nunclon Delta). Log-phase luminescent P. aeruginosa PAO1 strain (PAO1.lux) was added at an MOI of 10. After incubation of PAO1.lux with A549 cells at 37° C. for 1 hour, the A549 cells were washed, followed by addition of LB+0.5% glucose. Bacteria were quantified following a brief incubation at 37° C. as performed in the OPK assay described in Example 2. Measurements from wells without A549 cells were used to correct for non-specific binding.

[2] = test system: P. aeruginosa 6206 (O11-ExoU+); assay: Acute pneumonia model in mice, strain 6206; format: in vivo, Pseudomonas aeruginosa
Experimental: (§1) Antibodies or PBS were administered 24 hours before infection in each model. P. aeruginosa acute pneumonia, keratitis, and thermal injury infection models were performed as described (DiGiandomenico, A., et al., Proc Natl Acad Sci USA 104, 4624-4629 (2007)), with modifications. In the acute pneumonia model, BALB/c mice (The Jackson Laboratory) were infected with P. aeruginosa strains suspended in a 0.05 ml inoculum. In the thermal injury model, CF-1 mice (Charles River) received a 10% total body surface area burn with a metal brand heated to 92° C. for 10 seconds. Animals were infected subcutaneously with P. aeruginosa strain 6077 at the indicated dose. For organ burden experiments, acute pneumonia was induced in mice followed by harvesting of lungs, spleens, and kidneys 24 hours post-infection for determination of CFU.

[3] = test system: P. aeruginosa 6294 (O6); assay: Acute pneumonia model in mice, strain 6294; format: in vivo, Pseudomonas aeruginosa; conditions: for Overall Impression, lung histology: BALB/c mice
Experimental: as §1

[4] = test system: P. aeruginosa serogroup 05 strain (PAO1.lux); assay: Opsonophagocytic killing (OPK) assay with luminescent PAO1.lux, HL-60 cells and baby rabbit serum; format: cell-based, Pseudomonas aeruginosa; conditions: FIG. 2A
Experimental: (§2) This example describes the evaluation of prioritized human IgG1 antibodies to promote OPK of P. aeruginosa. […] OPK assays were performed as described in (DiGiandomenico, A., et al., Infect Immun 72, 7012-7021 (2004)), with modifications. Briefly, assays were performed in 96-well plates using 0.025 ml of each OPK component; P. aeruginosa strains; diluted baby rabbit serum; differentiated HL-60 cells; and monoclonal antibody. In some OPK assays, luminescent P. aeruginosa strains, which were constructed as described (Choi, K. H., et al., Nat Methods 2, 443-448 (2005))., were used. Luminescent OPK assays were performed as described above but with determination of relative luciferase units (RLUs) using a Perkin Elmer ENVISION Multilabel plate reader (Perkin Elmer).

[5] = test system: P. aeruginosa 6077 (O11-cytotoxic); assay: Corneal infection (keratitis) model in mice, strain 6077; format: in vivo, Pseudomonas aeruginosa; conditions: antibody 24 h prior to 6077 (2×10^6 CFU); FIG. 8A-D, F-G
Experimental: as §1
Cam-003 and WapR-004 efficacy was next evaluated in a P. aeruginosa corneal infection model which emphasizes the pathogens ability to attach and colonize damaged tissue. […] FIG. 8 (H): The activity of anti-Psl and anti-PcrV monoclonal antibodies V2L2 was tested in a P. aeruginosa mouse ocular keratitis model. C3H/HeN mice were injected intraperitoneally (IP) with PBS or a control IgG1 antibody (R347) at 45 mg/kg or WapR-004 (α-Psl) at 5 mg/kg or V2L2 (α-PcrV) at 5 mg/kg, 16 hours prior to infection with 6077 (O11-cytotoxic−1×10^6 CFU) Immediately before infection, mice were anesthetized followed by initiation of three 1 mm scratches on the cornea and superficial stroma of one eye of each mouse using a 27-gauge needle under a dissection microscope, followed by topical application of P. aeruginosa 6077 strain in a 5 μl inoculum. Eyes were photographed at 48 hours post infection followed by corneal grading by visualization of eyes under a dissection microscope. Grading of corneal infection was performed as previously described by Preston et al. (Preston, M J., 1995, Infect. Immun. 63:3497). Briefly, infected eyes were graded 48 h after infection with strain 6077 by an investigator who was unaware of the animal treatments. The following grading scheme was used: grade 0, eye macroscopically identical to an uninfected eye; grade 1, faint opacity partially covering the pupil; grade 2, dense opacity covering the pupil; grade 3, dense opacity covering the entire pupil; grade 4, perforation of the cornea (shrinkage of the eyeball).

[6] = test system: P. aeruginosa 6077 (O11, cytotoxic); assay: Acute pneumonia model in mice, strain 6077; format: in vivo, Pseudomonas aeruginosa; conditions: WapR-004 5 and 1 mg/kg; 6077 (O11) 8×10^5 or 6×10^5 CFU; FIG. 6E-F
Experimental: as §1

[7] = test system: P. aeruginosa serogroup 011 strain (9882-80.lux); assay: OPK assay with luminescent 9882-80.lux; format: cell-based, Pseudomonas aeruginosa; conditions: FIG. 2B
Experimental: as §2
The ability of the WapR-004 and Cam-003 antibodies to mediate OPK activity against another clinically relevant O-antigen serotype strain, 9882-80.lux, was evaluated.

[8] = target: rPcrV protein; assay: Binding kinetics on Bio-Rad ProteOn XPR36; set-up: species or system Pseudomonas aeruginosa; conditions: antibody captured, rPcrV injected; FIG. 12G-H
Experimental: Binding kinetics of V2L2-GL and V2L2-MD were measured using a Bio-Rad ProteOn™ XPR36 instrument. Antibodies were captured on a GLC bisensor chip using anti-human IgG reagents. rPcrV protein was injected at multiple concentrations and the dissociation phase followed for 600 seconds. Data was captured and analyzed using ProteOn Manager software. […] The clone V2L2-MD had increased Kd by 2-3 folds over V2L2-GL.

[9] = test system: P. aeruginosa 6077 (exoU+); assay: Rabbit red blood cell lysis inhibition assay with strain 6077; format: cell-based, Pseudomonas aeruginosa; conditions: strain 6077; FIG. 12D-E
Experimental: Percent inhibition of cytotoxicity analysis was analysed for the parental V2L2 mAb, mAb166 (positive control) and R347 (negative control), where the antibodies were administered to cultured broncho-epithelial cell line A549 combined with log-phase P. aeruginosa strain 6077 (exoU+) at a MOI of approximately 10. A549 lysis was assayed by measuring released lactate dehydrogenase (LDH) activity and lysis in the presence of mAbs was compared to wells without mAb to determine percent inhibition. The V2L2 mAb, mAb166 (positive control) and R347 (negative control) were evaluated for their ability to prevent lysis of RBCs, where the antibodies were mixed with log-phase P. aeruginosa 6077 (exoU^+) and washed rabbit red blood cells (RBCs) and incubated for 2 hours at 37°. Intact RBCs were pelleted and the extent of lysis determined by measuring the OD405 of the cell-free supernatant. Lysis in the presence of anti-PcrV mAbs was compared to wells without mAb to determine percent inhibition.

[10] = 5.25×10^5 cfu 6206, single antibody: R347 2.1 mg/kg, V2L2 0.1 mg/kg, WapR-004 0.5 mg/kg, Table 5
[11] = 9.25×10^5 CFU 6206, 0.2 mg/kg (combination 0.1 mg/kg ea), Table 7
[12] = 1.33×10^7 CFU 6294, 0.2 mg/kg (combination 0.1 mg/kg ea), Table 6A
[13] = 1.7×10^7 CFU 6294, 0.2 mg/kg (combination 0.1 mg/kg ea), Table 6B

B1: WapR-004: anti-Psl human IgG1 monoclonal antibody; VH SEQ ID NO: 11, VL SEQ ID NO: 12 (antibody, V domains shown)
VH: EVQLLESGPGLVKPSETLSLTCNVAGGSISPYYWTWIRQPPGKGLELIGYIHSSGYTDYNPSLKSRVTISGDTSKKQFSLHVSSVTAADTAVYFCARGDWDLLHALDIWGQGTLVTVSS
VL: EIVLTQSPSSLSTSVGDRVTITCRASQSIRSHLNWYQQKPGKAPKLLIYGASNLQSGVPSRFSGSGSGTDFTLTISSLQPEDFATYYCQQSYSFPLTFGGGTKLEIK
modifications: WapR-004 VH; WapR-004 & WarR-004RAD VL
- reduction of P. aeruginosa cell attachment to A549 cells compared to the negative control (up to) [1]: ~80%
- organ burden / tissue clearance (lung, spleen, kidney CFU) ([2]; 5.25×10^5 cfu 6206, V2L2 0.1 mg/kg, W4-RAD 0.5 mg/kg, combination, 24 h post infection, FIG. 15): effective in lowering organ burden
- Inflammatory Infiltrate [2, 10]: PMN 2-3+
- Involved Lung Surface Area [2, 10]: 50%
- Overall Impression, lung histology [2, 10]: Broncho interstitial pneumonia
- Bacteria [2, 11]: Neg-1+
- Inflammatory Infiltrate [2, 11]: PMN 1-2+
- Involved Lung Surface Area [2, 11]: 36%
- organ burden after induction of acute pneumonia ([2]; 6206 (~1×10^6 CFU), 15, 5, 1 mg/kg, FIG. 7F): reduced organ burden
- Overall Impression, lung histology ([2]; BALB/c mice, 9.25×10^5 CFU 6206, 0.2 mg/kg (combination 0.1 mg/kg ea), Table 7): Broncho interstitial pneumonia
- Hemorrhage, extent in words [3, 12]: Extensive
- Inflammatory Infiltrate [3, 12]: PMN 3+
- Involved Lung Surface Area [3, 12]: 57%
- Bacteria [3, 13]: Neg-2+
- Inflammatory Infiltrate [3, 13]: PMN 2+
- Involved Lung Surface Area ([3]; 1.7×10^7 CFU 6294, 0.2 mg/kg, Table 6B): 40%
- organ burden after induction of acute pneumonia ([3]; 6294 (~1×10^7 CFU), 15, 5, 1 mg/kg, FIG. 7E): reduced organ burden
- Overall Impression, lung histology [3, 12]: Broncho interstitial pneumonia
- Overall Impression, lung histology [3, 13]: Broncho interstitial pneumonia
- OPK activity, in words [4]: superior OPK activity
- bacterial counts in total eye homogenates compared to negative control [5]: reduced bacterial counts in total eye homogenates
- corneal pathology compared to negative control-treated animals [5]: significantly less pathology
- survival [6]: significant concentration-dependent survival
- OPK activity against strain 9882-80 (O11) [7]: extends to strain 9882-80 (O11)

B2: V2L2-MD: optimized V2L2-GL mAb; germlined lead optimized anti-PcrV antibody used in Bs4-GLO (antibody, V domains shown)
VH: EMQLLESGGGLVQPGGSLRLSCAASGFTFSSYAMNWVRQAPGEGLEWVSAITISGITAYYTDSVKGRFTISRDNSKNTLYLQMNSLRAGDTAVYYCAKEEFLPGTHYYYGMDVWGQGTTVTVSS
VL: AIQMTQSPSSLSASVGDRVTITCRASQGIRNDLGWYQQKPGKAPKLVIYSASTLQSGVPSRFSGSGSGTDFTLSISSLQPDDFATYYCLQDYNYPWTFGQGTKVEIK
modifications: V2L2-MD VH; V2L2-MD and V2L2-GL VL
- Kd increased over V2L2-GL [8]: 2-3 folds
- prevention of RBC lysis [9]: demonstrated prevention of RBC lysis
